Experimental data reported in patent US20240067727A1 (OSE IMMUNOTHERAPEUTICS, published 2024).
Numbering of substitutions follows the chain as printed. Names and notes keep the numbering of the source.

B1: anti PD-1*1 IL7 W142H*1 N297A DHS (other)
chain: DKTHTCPPCPAPELLGGPSVFLFPPKPKDTLMISRTPEVTCVVVDVSHEDPEVKFNWYVDGVEVHNAKTKPREEQYASTYRVVSVLTVDHHDWLNGKEYKCKVSNKALPAPIEKTISKAKGQPREPQVYTLPPCRDELTKNQVSLWCLVKGFYPSDIAVEWESNGQPENNYKTTPPVLDSDGSFFLYSKLTVDKSRWQQGNVFSCSVMHEALHSHYTQKSLSLSPGK
heavy: QIQLVQSGSELKKPGASVKVSCKASGYTFTHYAMNWVRQAPGQGLEWMGWINTNTGEPTYAQGFTGRFVFSLDTSVSTAYLQISSLKAEDTAVYYCAREREPGMDNWGQGTLVTVSSASTKGPSVFPLAPSSKSTSGGTAALGCLVKDYFPEPVTVSWNSGALTSGVHTFPAVLQSSGLYSLSSVVTVPSSSLGTQTYICNVNHKPSNTKVDKKVEPKSCDKTHTCPPCPAPELLGGPSVFLFPPKPKDTLMISRTPEVTCVVVDVSHEDPEVKFNWYVDGVEVHNAKTKPREEQYASTYRVVSVLTVDHHDWLNGKEYKCKVSNKALPAPIEKTISKAKGQPREPQVCTLPPSRDELTKNQVSLSCAVKGFYPSDIAVEWESNGQPENNYKTTPPVLDSDGSFFLVSKLTVDKSRWQQGNVFSCSVMHEALHSHYTQKSLSLSPGKGGGGSGGGGSGGGGSDCDIEGKDGKQYESVLMVSIDQLLDSMKEIGSNCLNNEFNFFKRHICDANKEGMFLFRAARKLRQFLKMNSTGDFDLHLLKVSEGTTILLNCTGQVKGRKPAALGEAQPTKSLEENKSLKEQKKLNDLCFLKRLLQEIKTCHNKILMGTKEH
light: DVVMTQSPLSLPVTLGQPASISCRSSQSLVHANTNTYLEWYQQRPGQSPRLLIYKVSNRFSGVPDRFSGSGSGTDFTLKISRVEAEDVGVYYCFQGTHVPNTFGQGTKLEIKRTVAAPSVFIFPPSDEQLKSGTASVVCLLNNFYPREAKVQWKVDNALQSGNSQESVTEQDSKDSTYSLSSTLTLSKADYEKHKVYACEVTHQGLSSPVTKSFNRGEC
notes: also called IL7 W142H N297A DHS
B2: anti PD-1*1 IL7 W142H*1 N297A LS (other)
chain: B1 chain with D89L, H91Q, M208L
heavy: B1 heavy with D309L, H311Q, M428L
light: B1 light
notes: Fc mutant of anti PD-1*1 IL7W142H*1; also called IL7 W142H N297A LS

Target: T1, recombinant hPD1 (Sino Biologicals, reference 10377-H08H) (human, UniProt Q15116 25-167)
T1 construct: also called Human recombinant PD-1; rPD1
T1 sequence (Q15116 25-167 limits assumed): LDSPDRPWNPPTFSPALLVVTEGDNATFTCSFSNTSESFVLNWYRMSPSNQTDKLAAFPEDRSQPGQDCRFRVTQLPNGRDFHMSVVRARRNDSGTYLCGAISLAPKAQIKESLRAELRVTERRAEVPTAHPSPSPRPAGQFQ
Assay: ELISA: human recombinant PD-1 immobilised, detection with anti-human Fc-peroxidase, TMB
Procedure: PD-1 binding ELISA assay. Human recombinant PD-1 (rPD1) protein was immobilized, and antibodies were added at different concentrations. Revelation was performed with an anti-human Fc antibody coupled to peroxidase. Colorimetry was determined at 450 nm using TMB substrate. The bifunctional molecules comprising an IL7 W142H N297A variant with 1 anti PD-1 arm ( ) was tested as control.

| Binder | EC50 (read off the curve) [µg/mL] |
| --- | --- |
| B1 | ~0.05 |
| B2 | ~0.03 |
